Measurements from US20240261333A1 (published 2024).

T1: PLOD1 (human, UniProt Q02809 19-727)
T1 construct: also called NP_000293.2 (+1)
T1 sequence (looked up): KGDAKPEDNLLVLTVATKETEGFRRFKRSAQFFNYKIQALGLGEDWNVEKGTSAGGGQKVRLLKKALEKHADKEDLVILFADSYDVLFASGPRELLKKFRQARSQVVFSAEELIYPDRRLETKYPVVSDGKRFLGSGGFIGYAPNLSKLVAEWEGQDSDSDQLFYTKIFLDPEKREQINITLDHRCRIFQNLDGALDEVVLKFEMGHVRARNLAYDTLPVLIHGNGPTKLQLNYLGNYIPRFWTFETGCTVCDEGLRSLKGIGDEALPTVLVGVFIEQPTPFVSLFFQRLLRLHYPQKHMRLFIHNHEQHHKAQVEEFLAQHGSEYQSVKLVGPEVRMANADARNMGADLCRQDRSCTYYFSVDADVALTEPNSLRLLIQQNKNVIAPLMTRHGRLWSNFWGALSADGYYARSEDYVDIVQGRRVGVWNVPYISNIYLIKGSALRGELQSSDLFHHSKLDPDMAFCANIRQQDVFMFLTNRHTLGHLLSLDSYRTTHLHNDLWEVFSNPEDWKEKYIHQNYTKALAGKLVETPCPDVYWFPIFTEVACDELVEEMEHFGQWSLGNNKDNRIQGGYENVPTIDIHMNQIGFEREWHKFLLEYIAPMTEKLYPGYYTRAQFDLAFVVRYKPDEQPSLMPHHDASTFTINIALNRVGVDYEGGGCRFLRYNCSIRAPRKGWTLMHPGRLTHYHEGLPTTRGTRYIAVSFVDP

T2: SRSF6 (human, UniProt Q13247 1-344)
T2 construct: also called NP_006266.2
T2 sequence (looked up): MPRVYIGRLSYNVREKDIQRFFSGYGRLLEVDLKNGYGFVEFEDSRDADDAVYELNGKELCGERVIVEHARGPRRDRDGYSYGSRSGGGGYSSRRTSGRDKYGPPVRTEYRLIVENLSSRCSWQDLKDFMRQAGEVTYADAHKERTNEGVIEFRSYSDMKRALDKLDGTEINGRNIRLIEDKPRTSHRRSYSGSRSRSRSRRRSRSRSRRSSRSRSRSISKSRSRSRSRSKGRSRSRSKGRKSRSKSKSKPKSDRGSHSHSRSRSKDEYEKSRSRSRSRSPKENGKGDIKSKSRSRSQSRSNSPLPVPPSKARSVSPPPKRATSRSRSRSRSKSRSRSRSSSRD

T3: TGM1 (human, UniProt P22735 1-817, limits assumed)
T3 construct: also called NP_000350.1
T3 sequence (looked up): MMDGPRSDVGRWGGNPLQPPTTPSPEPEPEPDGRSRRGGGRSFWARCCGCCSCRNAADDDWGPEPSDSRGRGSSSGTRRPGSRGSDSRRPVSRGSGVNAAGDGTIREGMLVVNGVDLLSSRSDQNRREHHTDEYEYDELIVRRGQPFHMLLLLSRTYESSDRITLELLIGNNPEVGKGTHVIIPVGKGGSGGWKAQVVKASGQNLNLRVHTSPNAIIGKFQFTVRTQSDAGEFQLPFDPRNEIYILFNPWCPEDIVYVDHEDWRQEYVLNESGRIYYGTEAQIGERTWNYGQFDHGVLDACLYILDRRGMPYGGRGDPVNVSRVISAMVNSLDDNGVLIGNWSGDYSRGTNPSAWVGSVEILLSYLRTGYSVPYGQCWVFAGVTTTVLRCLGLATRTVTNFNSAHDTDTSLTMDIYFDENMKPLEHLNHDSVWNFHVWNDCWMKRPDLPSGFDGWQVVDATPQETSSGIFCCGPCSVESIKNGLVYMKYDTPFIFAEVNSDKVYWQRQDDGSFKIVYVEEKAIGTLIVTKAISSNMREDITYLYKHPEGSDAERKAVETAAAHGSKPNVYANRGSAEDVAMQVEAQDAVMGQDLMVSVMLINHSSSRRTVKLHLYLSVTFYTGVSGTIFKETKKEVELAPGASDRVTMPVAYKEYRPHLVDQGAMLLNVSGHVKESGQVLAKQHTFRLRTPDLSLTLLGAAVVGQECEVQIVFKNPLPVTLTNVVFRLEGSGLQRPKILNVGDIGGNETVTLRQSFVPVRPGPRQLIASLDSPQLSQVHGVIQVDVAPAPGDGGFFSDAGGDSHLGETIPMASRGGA


Legend:
Assay in all cases: co-IP with anti-FLAG, N-FLAG B3GNT2, mass spectrometry
DHX9 = molecular target: T4, DHX9 (human, UniProt Q08211 1-1270)
T4 construct: also called NP_001348.2
T4 sequence (Q08211 whole entry): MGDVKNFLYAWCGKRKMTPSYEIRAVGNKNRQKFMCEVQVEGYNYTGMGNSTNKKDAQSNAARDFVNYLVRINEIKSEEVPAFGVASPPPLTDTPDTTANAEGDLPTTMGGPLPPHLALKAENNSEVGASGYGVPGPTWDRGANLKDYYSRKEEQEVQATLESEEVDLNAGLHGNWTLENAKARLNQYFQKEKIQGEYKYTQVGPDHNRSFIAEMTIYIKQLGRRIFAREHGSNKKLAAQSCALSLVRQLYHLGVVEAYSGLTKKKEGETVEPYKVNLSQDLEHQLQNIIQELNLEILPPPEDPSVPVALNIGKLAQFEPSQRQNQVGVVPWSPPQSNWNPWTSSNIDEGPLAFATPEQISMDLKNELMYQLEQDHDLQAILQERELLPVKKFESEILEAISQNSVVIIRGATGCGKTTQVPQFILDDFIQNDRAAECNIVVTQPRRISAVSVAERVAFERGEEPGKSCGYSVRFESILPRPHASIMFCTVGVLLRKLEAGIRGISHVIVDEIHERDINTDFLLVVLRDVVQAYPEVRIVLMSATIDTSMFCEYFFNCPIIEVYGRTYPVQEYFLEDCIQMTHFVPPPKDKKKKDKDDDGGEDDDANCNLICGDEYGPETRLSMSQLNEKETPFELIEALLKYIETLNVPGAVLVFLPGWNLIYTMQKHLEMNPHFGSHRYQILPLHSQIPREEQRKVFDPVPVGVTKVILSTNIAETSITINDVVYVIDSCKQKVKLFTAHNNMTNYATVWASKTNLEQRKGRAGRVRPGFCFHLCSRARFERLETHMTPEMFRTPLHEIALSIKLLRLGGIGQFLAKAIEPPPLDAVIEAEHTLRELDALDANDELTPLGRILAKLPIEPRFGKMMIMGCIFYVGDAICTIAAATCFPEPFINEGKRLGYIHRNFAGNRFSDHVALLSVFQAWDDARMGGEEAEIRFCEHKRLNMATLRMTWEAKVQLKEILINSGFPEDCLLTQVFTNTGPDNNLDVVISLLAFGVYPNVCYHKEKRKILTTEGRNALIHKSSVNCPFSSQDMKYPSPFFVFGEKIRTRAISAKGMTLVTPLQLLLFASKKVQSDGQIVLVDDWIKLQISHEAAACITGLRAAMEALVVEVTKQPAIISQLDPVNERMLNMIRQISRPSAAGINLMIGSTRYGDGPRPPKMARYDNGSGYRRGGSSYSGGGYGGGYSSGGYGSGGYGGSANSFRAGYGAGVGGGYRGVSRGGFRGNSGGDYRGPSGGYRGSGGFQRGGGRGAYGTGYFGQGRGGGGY

RPS24 = molecular target: T5, RPS24 (human, UniProt P62847-4 1-289, limits assumed)
T5 construct: also called NP_001135757.1
T5 sequence (P62847 other isoform, or with tags, fused parts or gaps limits assumed): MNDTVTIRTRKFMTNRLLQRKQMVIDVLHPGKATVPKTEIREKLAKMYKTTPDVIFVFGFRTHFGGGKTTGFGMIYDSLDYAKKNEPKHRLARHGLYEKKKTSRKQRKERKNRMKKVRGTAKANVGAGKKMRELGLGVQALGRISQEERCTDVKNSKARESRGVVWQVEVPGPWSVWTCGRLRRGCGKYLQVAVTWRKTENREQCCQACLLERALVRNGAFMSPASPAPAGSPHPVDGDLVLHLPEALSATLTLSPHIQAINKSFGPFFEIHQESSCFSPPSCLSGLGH

PLOD1 = molecular target: T1, PLOD1
SRSF6 = molecular target: T2, SRSF6
TGM1 = molecular target: T3, TGM1

Row | Binder | co-IP mass spectrometry count (DHX9) | co-IP/MS count, N-term FLAG (RPS24) | co-IP/MS count, N-term FLAG (PLOD1) | co-IP/MS count, N-term FLAG (SRSF6) | co-IP/MS count, N-term FLAG (TGM1)
1 | N-terminal FLAG tagged B3GNT2 (enzyme, human, UniProt Q9NY97 1-397, looked up, FLAG-tagged ORF overexpressed in cells; pulled down from lysate with mouse anti-FLAG; also called N-FLAG B3GNT2; N-term FLAG; not shown: N-terminal FLAG tag) MSVGRRRIKLLGILMMANVFIYFIMEVSKSSSQEKNGKGEVIIPKEKFWKISTPPEAYWNREQEKLNRQYNPILSMLTNQTGEAGRLSNISHLNYCEPDLRVTSVVTGFNNLPDRFKDFLLYLRCRNYSLLIDQPDKCAKKPFLLLAIKSLTPHFARRQAIRESWGQESNAGNQTVVRVFLLGQTPPEDNHPDLSDMLKFESEKHQDILMWNYRDTFFNLSLKEVLFLRWVSTSCPDTEFVFKGDDDVFVNTHHILNYLNSLSKTKAKDLFIGDVIHNAGPHRDKKLKYYIPEVVYSGLYPPYAGGGGFLYSGHLALRLYHITDQVHLYPIDDVYTGMCLQKLGLVPEKHKGFRTFDIEEKNKNNICSYVDLMLVHSRKPQEMIDIWSQLQSAHLKC | 0 |  |  |  | 
2 | N-terminal FLAG tagged B3GNT2 (enzyme, human, UniProt Q9NY97 1-397, looked up, FLAG-tagged ORF overexpressed in A375 cells; pulled down from the lysate with mouse anti-FLAG; also called N-FLAG B3GNT2; N-term FLAG; not shown: N-terminal FLAG tag) MSVGRRRIKLLGILMMANVFIYFIMEVSKSSSQEKNGKGEVIIPKEKFWKISTPPEAYWNREQEKLNRQYNPILSMLTNQTGEAGRLSNISHLNYCEPDLRVTSVVTGFNNLPDRFKDFLLYLRCRNYSLLIDQPDKCAKKPFLLLAIKSLTPHFARRQAIRESWGQESNAGNQTVVRVFLLGQTPPEDNHPDLSDMLKFESEKHQDILMWNYRDTFFNLSLKEVLFLRWVSTSCPDTEFVFKGDDDVFVNTHHILNYLNSLSKTKAKDLFIGDVIHNAGPHRDKKLKYYIPEVVYSGLYPPYAGGGGFLYSGHLALRLYHITDQVHLYPIDDVYTGMCLQKLGLVPEKHKGFRTFDIEEKNKNNICSYVDLMLVHSRKPQEMIDIWSQLQSAHLKC |  | 0 | 0 | 6 | 17
